Patent publication US5851983A, “Elastase inhibitory polypeptide and process for production thereof by recombinant gene technology” (Teijin Limited, priority 1987, dated 1998)

Legend:
[1] = molecular target: T1, polymorphonuclear leukocyte elastase from human sputum (Homo sapiens, UniProt P08246); assay: Serine protease inhibitory assay, Example 12: human elastase; assay type: biochemical; settings: read-out: concentration of inhibitory protein which exhibits a 50% inhibition; enzyme 10^-9 M; MeO-Suc-Ala-Ala-Pro-Val-pNA 0.3 mM; 37° C.
T1 construct: Polymorphonuclear leukocyte elastase from human sputum (EPC Co; Funakoshi Yakuhin); purchased EPC Co. (via Funakoshi Yakuhin); host or cells: human sputum
T1 sequence (P08246 30-267): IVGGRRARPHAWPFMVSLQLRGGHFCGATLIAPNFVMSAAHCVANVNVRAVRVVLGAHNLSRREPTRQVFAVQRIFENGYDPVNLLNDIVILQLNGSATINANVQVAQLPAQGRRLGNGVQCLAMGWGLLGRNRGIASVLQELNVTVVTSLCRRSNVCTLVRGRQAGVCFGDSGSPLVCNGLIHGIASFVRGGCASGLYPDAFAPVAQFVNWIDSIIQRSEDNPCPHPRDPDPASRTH
Procedure: (§1) To each well of a 96-well ELISA microplate were added 140 μl of the above-mentioned buffer, 20 μl of a test solution, and 20 μl of the enzyme solution, and the mixture was stirred at 37° C. for 30 minutes. Next, 20 μl of the substrate solution was added to the well, the mixture was stirred at 37° C. for one hour to develop same, and the absorbance at 405 nm was measured.

Calf pancreatic trypsin = molecular target: T2, Calf pancreatic trypsin (Bos taurus, UniProt P00760); assay: Serine protease inhibitory assay, Example 12: trypsin; assay type: biochemical; settings: read-out: concentration of inhibitory protein which exhibits a 50% inhibition; enzyme 10^-7 M; Bz-Arg-pNA 1.0 mM; 37° C.
T2 construct: (2) Calf pancreatic trypsin (Sigma); purchased Sigma; host or cells: calf pancreas
T2 sequence (P00760 24-246): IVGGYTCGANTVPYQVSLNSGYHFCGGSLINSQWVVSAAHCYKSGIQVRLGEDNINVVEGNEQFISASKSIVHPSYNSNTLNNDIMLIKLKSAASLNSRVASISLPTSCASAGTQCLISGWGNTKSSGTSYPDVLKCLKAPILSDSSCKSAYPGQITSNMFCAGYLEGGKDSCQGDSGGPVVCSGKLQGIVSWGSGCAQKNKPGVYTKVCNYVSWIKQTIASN
Procedure: Assay of serine protease inhibitory activity of active-type (Asn^55 -Ala^107) SLPI fragment polypeptide
The active-type (Asn^55 -Ala^107) SLPI fragment polypeptide obtained by refolding by the procedure shown in Example 11 as measured to determine its inhibitory activity to various serine proteases. The assay result thereof is shown as follows.
Enzyme solution: The following enzymes were dissolved in the above-mentioned buffer solutions at a concentration ten-times higher than the concentration shown in Table 4.
(2) Calf pancreatic trypsin (Sigma)
Substrate solution: For the above-mentioned enzymes (1) to (7), the following substrates (1) to (7), respectively, were dissolved in dimethyl sulfoxyde to a concentration of 10 mM to prepare stock solutions, which were then dissolved in the above-mentioned buffer solution to concentration ten-times higher than final concentrations, to prepare substrate solutions. […]
as §1
Moreover, an inhibitory constant Ki of the present (Asn^55 -Ala^107) SLPI was calculated on the basis of the above data by a method of Dixon, M. and Webb, E. C. (1979), Enzyme, Longman or a method of Henderson, P. J. F. (1972) Biochem. J., 127, 321-333.

[2] = Partial hydrolysis with healthy human saliva (Examples 15, 16); assay type: in vitro ADME; settings: 37° C.
Procedure: Healthy human saliva was filtered through a 0.22 μm filter (Milex GS, Milipore), and in the filtrate was dissolved 1 mg/ml of the SLPI prepared in Reference Example 1. The mixture was then incubated at 37° C. for 30 days. As a control, the SLPI was dissolved in physiological saline (Physisalz; Fuso Yakuhin Kogyo), and the mixture was incubated at 37° C. for 30 days.
With an elapse of time, samples were taken and to each sample were added a Tris-HCl buffer (pH 6.8), SDS, 2-mercaptoethamel and glycerol, to final concentration of 60 mM, 2% by weight, 4% by weight and 10% by weight, respectively, and the mixture was subjected to an SDS-PAGE (U.K. Laemmli, Nature, 227, 680, 1970). The gel after electrophoresis was stained with Coomussie Brilliant Blue.
Next, polypeptides in the polyacrylamide gel thus obtained were electrically transferred to a membrane (Immobilon; Milipore) using a Milli Blot-SDE apparatus. After the transfer, the membrane was stained with 0.1% by weight of Coomassie Blue in 40% by weight methanol/1% by weight acetic acid, and washed with water. Then, after air drying, the bands b, c, d and e were excised, and for each band, the PTH-amino acids were cleaved from the N-terminus with an Applied Biosystems Protein Sequences (Applied Biosystems; 470A) and analysed with a PTH analyser (Applied Biosystems, 120A) to determine an amino acid sequence for 10 amino acids from the N-terminus.
According to the same procedure as described in Example 15, (Asn^55 -Ala^107) SLPI prepared in Example 11 was treated with healthy human saliva at 37° C., and a result is shown in FIG. 13. […] After 12 hours, a new band g (MW about 5,500) appeared.
Next, according to the same procedure as described in Example 15, the band g was electrically transferred to a membrane and N-terminal amino acid sequence was analyzed. […] The 6th amino acid could not be determined. The N-terminal amino acid sequence of the band g corresponds to an amino acid sequence starting from Arg^59 of SLPI.

[3] = molecular target: T3, polymorphonuclear leucocyte elastase from human sputum (Homo sapiens, UniProt P08246); assay: Simultaneous treatment with healthy human saliva and elastase (Examples 28, 29); assay type: in vitro ADME; settings: 37° C.
T3 construct: Polymorphonuclear leukocyte elastase from human sputum (EPC Co; Funakoshi Yakuhin); purchased EPC Co. (via Funakoshi Yakuhin); host or cells: human sputum
T3 sequence (P08246 30-267): T1 sequence (P08246 30-267)
Procedure: (1) Healthy human saliva was ultra-filtered through a 0.22 μm filter (Millex GS, Millipore), and to the filtered saliva were added SLPI and polymorphonuclear leucocyte elastase from human sputum (EPC, Funakoshi Yakuhin) to a final concentration of 50 μM respectively. The mixture was incubated at 37° C., samples were taken as time elapsed, and analyzed by SDS-PAGE as described in Example 27.
(2) Next, the band J was transferred to a membrane as described in Example 27, and N-terminal amino acid sequence was analyzed.
(1) According to the same procedure as described in Example 28, to healthy human saliva were dissolved SLPI and polymorphonuclear leucocyte elastase from human sputum to final concentrations of 50 μM and 100 μM respectively, and the mixture was incubated at 37° C. Samples were taken as time elapsed, and analyzed by SDS-PAGE.
(2) Next, N-terminal amino acid sequence of the band M was analyzed as described in Example 27.

- IC50 [1]: 1 nM
- IC50 (Calf pancreatic trypsin): 130 nM
Substance: (Asn^55 -Ala^107) SLPI: polypeptide having an amino acid sequence starting with the 55th Asn and ending at the 107th Ala of SLPI (NPTRRKPGKCPVTYGQCLMLNPPNFCEMDGQCKRDLKCCMGMCGKSCVSPVKA)
- SDS-PAGE band after incubation in physiological saline without saliva ([2]; 96 hours): only the band f having an MW of about 5,800 remained
- SDS-PAGE bands after incubation in healthy human saliva ([2]; 96 hours, band f = starting polypeptide, band g MW about 5,500): only the band g remained after 96 hours of incubation
- cleavage sites in healthy human saliva ([2]; SDS-PAGE bands, N-terminal sequencing): cleaved at a site between Arg^58 -Arg^59
- SDS-PAGE bands on simultaneous treatment with healthy human saliva and elastase ([3]; 50 μM polypeptide, elastase 50 μM (Example 28) or 100 μM (Example 29)): after 48 hours, almost only band M was observed
- cleavage site on simultaneous treatment with healthy human saliva and elastase ([3]; N-terminal sequencing of SDS-PAGE band): cleaved at the site between Thr^57 -Arg^58
